Reference: article doi:10.1101/2021.12.20.473529 (bioRxiv, 2021)
Residue numbers refer to the chain shown, from its start. Numbers in names are those of the source.

B1: HNF-1A DD-DBD (HNF-1A 1-279), wild type (domain or fragment, human, UniProt P20823 1-279, looked up)
chain: MVSKLSQLQTELLAALLESGLSKEALIQALGEPGPYLLAGEGPLDKGESCGGGRGELAELPNGLGETRGSEDETDDDGEDFTPPILKELENLSPEEAAHQKAVVETLLQEDPWRVAKMVKSYLQQHNIPQREVVDTTGLNQSHLSQHLNKGTPMKTQKRAALYTWYVRKQREVAQQFTHAGQGGLIEEPTGDELPTKKGRRNRFKWGPASQQILFQAYERQKNPSKEERETLVEECNRAECIQRGVSPSQAQGLGSNLVTEVRVYNWFANRRKEEAFRH
B2: HNF-1A DD-DBD/R263C (domain or fragment, human, UniProt P20823 1-279, looked up)
chain: B1 chain with R263C
B3: HNF-1A DD-DBD/N266S (domain or fragment, human, UniProt P20823 1-279, looked up)
chain: B1 chain with N266S

Biological target: the molecule itself
Assay: SEC-MALS

Stoichiometry N, 2:
B1
B2
B3
